Results on six molecules are retold here after US7005283B2, “Cytochrome P450 oxygenases and their uses” (Washington State University Research Foundation, priority 1999, dated 2006).

B1: clone F19: Taxus cuspidata cytochrome P450 oxygenase, full-length clone, SEQ ID NO: 50 (nt) / 63 (aa) (protein, listed as Taxus cuspidata)
chain: MDAFNILKGPAAKLNGVVQLGSYTDRILSITVVAFITILLLLMLRWKSQSSVKLPPGNFGFPLIGETLQLLRAFRSNTTQQFFDERQKKFGCVFKTSLVGERTVVLCGPSGNRLVLANQNKVVESSWPSAFIKLIGEDSIANTNGEKHRILRAALLRYLGPGSLQNYVGKMRSEIEHHINEKWKGKDEVKVLDLVRKNVFSVATALFFGVNDEERKRIRPPSILRKLHFAGSFSIPLDFPGTSYRRALEARLKLDKILSSLIERRRSDLRSGLASGNEDLVSVLLTFKDEGGNPLTDKEILDNFSGLLHASYDTTTSALTLTFKLMSSSAECYDKVVQEQLRIVSNKKEGEEISLKDLKDMKYTWQVVQETLRMFPPLFGSFRKTIADIQYDGYTIPKGWKVLWATYTTHGRDEYFSEPQKFRPSRFEEGGKHVAPYTFLPFEGGERTCPGYEFSKTHILLFIHQFVKTFTGYIPLDPNESISANPLPPLPANGFPVKLFQRS
B2: clone F10: Taxus cuspidata cytochrome P450, outlying full-length clone, SEQ ID NO: 55 (nt) / 68 (aa) (protein, listed as Taxus cuspidata)
chain: MAFEAATVILFTLAALLLVVIQRRRIRRHKLQGKVKAPQPPSWPVIGNLHLLTQKVPIHRILSSLSESYGPIMHLQLGLRPALVIASSDLAKECFTTNDKAFASRPRLSAGKHVGYDYKIFSMAPYGSYWRNLRKMCTIQILSATRIDSFRHIRVEEVSALIRSLFDSCQREDTPVNMKARLSDLTFSIILRMVANKKLSGPVYSEEYEEADHFNQMIKQSVFLLGAFEVGDFLPFLKWLDLQGFIAAMKKLQQKRDVFMQKLVIDHREKRGRVDANAQDLIDVLISATDNHEIQSDSNDDVVKATALTMLNAGTDTSSVTIEWALAALMQHPHILSKAQQELDTHIGRSRLLEEADLHELKYLQAIVKETLRLYPAAPLLVPHEAIEDCTVGGYHVSAGTRLIVNAWAIHRDPAVWERPTVFDPERFLKSGKEVDVKGREFELIPFGSGRRMCPGMSLALSVVTYTLGRLLQSFEWSVPEGMIIDMTEGLGLTMPKAVPLETIIKPRLPFHLY
B3: clone F23: Taxus cuspidata cytochrome P450 oxygenase, full-length clone, SEQ ID NO: 84 (nt) / 90 (aa) (protein, listed as Taxus cuspidata)
chain: MELWNMFLPWISIATATSLTVGMASAFAIIYAPLLLSFLRLKTARRNMPPIPPGSMGMPFWGESLGYLGSWNNQSNPDVWYDTRKAKHGKIFTTHILGSPTVVMLGPDANRFILINENKLFLNSWPKSLNALIGKHALITSQGAEHKRMRRIIHSVLGPRNPETSVGRFEGLVLHHLDSDWHGGQIIQAYRQVKDMALCLAADFFMGLKPGKELETFRRHFSDFSAGLLSHPLDLPWTVFGKAKRARAAMVTQIFSQIRLHRTSMHKSGEEGGNFLDMVLGSQEKGGDLRLSEEEIADNLMGLLTGGQDTTASALATILKHLSLSPHLLQRLRKECEKLRDNKEAGGPLTWSEIKSVGYLHNVISEGLRMVAPINGGFKKAKVDVVYGGYTIPKGWKVHYSVRQTNNKEEYFPSPERFDPDRFNERHEPFSFIPFGQGNRMCPGNEFARLEMELFLYHLVLRYDWELMEADERTNMYFIPHPVHSLPLLLKHVPPT
B4: clone F42: Taxus cuspidata cytochrome P450 oxygenase, full-length clone, SEQ ID NO: 45 (nt) / 58 (aa) (protein, listed as Taxus cuspidata)
chain: MDSFSFLKSMEAKFGQVIHRDQSSSTALLSLAFTAAVAIFLVLLFRFKSRPSTNFPPGNFGFPFIGETIQFLRALRSESPHMFFDERLKKFGRVFKTSLTGHPTAVFCGPAGNRFIYSNEHKLVQSSGPNSFVKLVGQQSIVTKTGEEHRIFLGVLNEFLGPHALQSYTPKMSSKIQENINKHWKGKDEVNMLPSIRQLVFSISSSLFFDINDEDQQEQLKTLLETILVGTLSVPLDIPGSNFRKALRARSKLDEILSRLIESRRKDMRSGIASTSKNLLSVLLAFKDERGNPLTDTEILDNFSFMLHASYDTTVSPTVCIFKLLSANPECYEKVVQEQLGILGNKKDGEEMCWNDLKAMKYTWQAAQETMRLFPPAFGSFRKVIADIHHDGYIIPKGWKAMVTNYSTSRKEEYFDEPDNFKPSRFGDGKYVAPYTFLPFGAGIRICPGWEFAKLEMLLFIHHFVKNFSGYLPLDTKEKISGDPFPPLPKNGFPIKLFPRT
B5: clone F55: Taxus cuspidata cytochrome P450 oxygenase, full-length clone, SEQ ID NO: 52 (nt) / 65 (aa) (protein, listed as Taxus cuspidata)
chain: METKFGQLMQLEFLPFILTPILGALVLLHLFRHRNRSSVKLPPGKLGFPVIGETIQFLRALRSQTPQKFFDDRVQKFGGVFKTSLIGNPLVVMCGPAGNRLVLSNEDKLVQLEAPNSLMKLMGQDSLLAKRQEDHRTLRAALARFLGPQALXNYMTKISSRTEHHMNEKWKGKDEVRTLPLIRELIFSNASSLFFDINDEHQQERLHHLLEAVVVGSMSIPLDFPGTRLRKALQARSKLDEILSSLIKSRRKDLVSGIASDDQDLLSVLLTFKDERGNPLTDKEILDNFSLLLHASYDTTVSPMVLTLKLLSSNPECYEKVVQEQLGIVANKRIGEEISWKDLKAMKYTWQVVQETLRMFPPLFGSFRKAMVDIDYDGYTIPKGWMILWTTYGTHLREEYFNEPLKFRPSRFEEDGRVTPYTFIPFGGGARTCPGWEFSKTEILLFIHHFVRTFSSYLPVDSNEKISADPFPPLPANGFSIKLSADPFPPLPANGFSIKLFPRSQSN
modifications: not fully specified; (1)..(507) “Xaa” equals any peptide
B6: clone F56: Taxus cuspidata cytochrome P450 oxygenase, full-length clone, SEQ ID NO: 49 (nt) / 62 (aa) (protein, listed as Taxus cuspidata)
chain: MDTLIQIQSSPDFLSFTLTAFLGVVVLLIFRYKHRSALKLPPGNLGLPFIGETITFASQPPQKFLNERGKKFGPVFKTSLIGHPTVVLCGSSGNRFLLSNEEKLVRMSLPNSYMKLLGQDSLLGKTGQEHRIVRTALGRFLGPQELQNHVAKMSSDIQHHINQKWKGNDEVKVLPLIRNLVFSIATSLFFGINDEHQQERLHLLLETIVMGAVCIPLAFPGSGFRKALQARSELDGILISLMKIRRSDLRSGAASSNQDLLSVLLTFKDERGNPLTDKEILDNFSVLLHGLYDTTISPLTLIFKLMSSNTECYENVVQEQLEILSHREKGEEIGWKDLKSMKYTWQAIQETLRMFPPVYGNFRKALTDIHYDGYTIPKGWRVLCSPFTTHSNEEYFNEPDEFRPSRFEGQGKNVPSYTFIPFGGGLRICPGWEFAKTEMLLFIHYFVKTFSSYVPVDPNEKISADPLASFPVNGFSVKLFPRS

One data set in a line: In vivo assay of yeast cells expressing recombinant oxygenases, radio-HPLC, substrate taxadiene. It is filed as cell-based, Saccharomyces cerevisiae. Conditions: assayed with Taxadiene; graded symbols, key not given. From the text: (§1) Transformed yeast cells that fimctionally express a recombinant cytochrome P450 gene from Taxus (by CO-difference spectrum) can be tested in vivo for their ability to oxygenate (hydroxylate or epoxidize) taxoid substrates fed exogenously to the cells, thereby eliminating the need for microsome isolation for preliminary in vitro assays.
(§2) Accordingly, several clones of the available full-length clones were expressed in induced yeast host cells.
(§3) Isolated transformants for each full-length cytochrome P450 clone shown to express a functional enzyme by CO-difference spectrum (ten clones) were grown to stationary phase in 2 mL SGI medium at 30° C. and used to inoculate a 10-mL expression culture (in YPL medium). Approximately 8 hours after induction, cells were harvested by centrifugation (10 minutes at 1500 rpm), and the pellet was resuspended in 2 mL of fresh YPL medium.
(§4) To eliminate additional complication and uncertainty associated with microsome isolations for in vitro assays, 10^6 dpm of [20-^3H3]taxa-4(5),11(12)-diene (16 Ci/mol) or [20-^3H2]taxa-4(20),11(12)-diene-5-α-ol (4.0 Ci/mol), or other taxoid substrate were added directly to the cell suspension to assay conversion in vivo. After 12 hours of incubation at 30° C. with agitation (250 rpm), the mixture was treated for 15 minutes in a sonication bath and extracted 3 times with 2 mL diethyl ether to insure isolation of the biosynthetic products. These ether extracts, containing residual substrate and derived product(s), were concentrated to dryness, resuspended in 200 μL of CH3CN, and filtered. These samples were analyzed by radio-HPLC (Hefner et al., Chemistry and Biology 3:479–489, 1996) using a 4.6 mm i.d.×250 mm column of Econosil C18, 5 μ (Alltech, Deerfield, Ill.) with a gradient of CH3CN in H2O from 0% to 85% (10 minutes at 1 mL/minute), then to 100% CH3CN over 40 minutes.
B1: the “product identified HPLC peak” value is listed as “No”.

With B2, the “product identified HPLC peak” value is listed as “No”.

As to B3, the “product identified HPLC peak” value was “No”.

In the case of B4, the “product identified HPLC peak” value is recorded as “No”.

As to B5, the “product identified HPLC peak” value was “No”.

Consider B6, for which the “product identified HPLC peak” value was “No”.

Another data set can be described thus: In vivo assay of yeast cells expressing recombinant oxygenases, radio-HPLC, substrate taxadien-5α-ol. It is filed as cell-based, Saccharomyces cerevisiae. The conditions noted are these: assayed with Taxadien5αol; graded symbols, key not given.
Text: as §1, §2, §3, §4
For the molecule B1, the “product identified HPLC peak” value is “No”.

For B2, the “product identified HPLC peak” value is “No”.

Regarding B3, the “product identified HPLC peak” value is “No”.

Regarding B4, the “product identified HPLC peak” value is “No”.

For the molecule B5, the “product identified HPLC peak” value is on record as “No”.

Take B6: the “product identified HPLC peak” value is on record as “No”.

Assay in another data set: not given
Settings: not given
It is filed as binding, Saccharomyces cerevisiae. An excerpt:
CO-sensor of the 19 full-length cytochrome P450 clones from Taxus, thus far obtained, ten have yielded detectable CO-difference spectra (Table 2). […] These alternative expression systems for cytochrome P450 genes include the yeast Pichia pastoris, for which expression vectors and hosts are commercially available (Invitrogen, Carlsbad, Calif.), as well as established E. coli and baculovirus-insect cell systems for which general expression procedures have been described (Barnes, Methods Enzymol. 272:1–14, 1996;Gonzalez et al., Methods Enzymol. 206:93–99, 1991;Lee et al., Methods Enzymol. 272:86–98, 1996;and Lupien et al., Arch. Biochem. Biophys. 368:181–192, 1999).
Appropriate restriction sites were introduced by standard PCR methods (Innis et al., PCR Protocols: A Guide to Methods and Applications, Academic Press, San Diego, Calif., 1990) immediately upstream of the ATG start codon and downstream of the stop codon of all full-length cytochrome P450 clones. These modified amplicons were gel-purified, digested with the corresponding restriction enzymes, and then ligated into the expression vector pYeDP60. The vector/insert junctions were sequenced to ensure that no errors had been introduced by the PCR construction. Verified clones were transformed into yeast using the lithium acetate method (Ito et al., J. Bacteriol. 153:163–168, 1983). Isolated transformants were grown to stationary phase in SGI medium (Pompon et al., Methods Enzymol. 272:51–64, 1996), and used as inocula for a large-scale expression culture grown in YPL medium (Pompon et al., Methods Enzymol. 272:51–64, 1996). Approximately 24 hours after induction of cytochrome P450 expression with galactose (to 10% final concentration), a portion of the yeast cell culture was harvested by centrifugation. One-half of the culture was treated with carbon monoxide, and the cytochrome P450 CO-difference spectrum was recorded directly (using untreated cells as a control) by spectrophotometry (Omura and Sato, J. Biol. Chem. 239:2370–2378, 1964).
Consider B1, for which the CO diff. spec. result is reported as “−”.

Take B2: the CO diff. spec. result is “+”.

With B3, the CO diff. spec. entry was “−”.

Turning to B4, the CO diff. spec. result is “−”.

On to B5, for which the CO diff. spec. result is recorded as “−”.

For B6, the CO diff. spec. result is given as “−”.
